Data on 8 molecules can be found in paper PMC9879961 (Nature Communications, 2023).

Data set [1] has as its target T1, RAD51 (UniProt Q06609 1-339).
T1 construct: No tag is named; also called RAD51 recombinase; source: E. coli BLR pRARE (pET11-RAD51), purified (ammonium sulfate, Q Sepharose, hydroxyapatite, Mono-Q)
T1 sequence (looked up): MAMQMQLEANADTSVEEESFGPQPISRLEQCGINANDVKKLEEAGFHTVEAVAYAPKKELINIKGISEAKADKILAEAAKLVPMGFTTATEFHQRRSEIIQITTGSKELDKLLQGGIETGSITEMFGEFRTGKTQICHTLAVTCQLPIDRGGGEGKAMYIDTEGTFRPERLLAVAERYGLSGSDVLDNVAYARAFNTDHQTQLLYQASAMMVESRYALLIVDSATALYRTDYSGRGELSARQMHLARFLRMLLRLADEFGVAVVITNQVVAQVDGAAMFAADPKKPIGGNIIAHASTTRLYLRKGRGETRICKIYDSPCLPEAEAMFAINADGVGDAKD
The data set is described as follows: pull-down; CTRB species held through the S-tag on S-Protein agarose; RAD51 and CTRB 4 µg each; 25 µl buffer T (25 mM Tris-HCl pH 7.5, 0.5 mM EDTA, 10% glycerol, 0.01% Igepal) with 150 mM KCl and Benzonase; on ice 30 min, resin 1 h at 4 °C; SDS-PAGE, Coomassie. The following applies: both partners purified.

For data set [2], the target named is T1, RAD51. The data set is described as follows: pull-down; GST-tagged TR2 polypeptides captured on glutathione-Sepharose with RAD51; 10 µl buffer K (20 mM KH2PO4 pH 7.5, 0.5 mM EDTA, 10% glycerol, 0.01% Igepal) with 150 mM KCl; SDS-PAGE, Coomassie. The note with it: both partners purified.
The target in data set [3] is T2, CTRB (Homo sapiens, UniProt P51587 3194-3418).
T2 sequence: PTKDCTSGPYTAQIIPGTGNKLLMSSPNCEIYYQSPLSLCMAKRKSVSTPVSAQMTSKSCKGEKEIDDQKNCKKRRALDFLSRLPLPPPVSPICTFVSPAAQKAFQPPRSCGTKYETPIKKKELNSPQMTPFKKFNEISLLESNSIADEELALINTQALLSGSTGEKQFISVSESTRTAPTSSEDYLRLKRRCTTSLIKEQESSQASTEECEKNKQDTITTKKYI
The data set is described as follows: EMSA; highest affinity of the three DNAs; EMSA: 10 nM DNA, 35 mM Tris pH 7.5, 1 mM MgCl2, 1 mM DTT, 100 ug/ml BSA, 50 mM KCl, 25 C, 5 min; 8% native PAGE in TAE. The following applies: protein: recombinant; tags: N-term His6-thioredoxin-S (pET32a), C-term Flag; label: 5' Cy5 on H3; fork 1:2, 40 bp duplex with two 40 nt ssDNA arms. In general terms: A gel shift assay detects complexes by their altered migration in electrophoresis.

B1: CTRB (BRCA2 residues 3194-3418), His6-Thioredoxin-S tagged, C-terminally Flag-tagged (domain or fragment, human, UniProt P51587 3194-3418, looked up)
chain: PTKDCTSGPYTAQIIPGTGNKLLMSSPNCEIYYQSPLSLCMAKRKSVSTPVSAQMTSKSCKGEKEIDDQKNCKKRRALDFLSRLPLPPPVSPICTFVSPAAQKAFQPPRSCGTKYETPIKKKELNSPQMTPFKKFNEISLLESNSIADEELALINTQALLSGSTGEKQFISVSESTRTAPTSSEDYLRLKRRCTTSLIKEQESSQASTEECEKNKQDTITTKKYI
notes: BRCA2, human, residues 3194-3418 of the 3,418-residue protein; No tag cleavage is described; also called wild-type CTRB; source: E. coli Rosetta (pET32a), purified (Ni-NTA, Source S, anti-Flag M2, Mono-Q)
For B1, the binding result in data set [1] was “binds”.

B2: CTRB-S3291A (domain or fragment, human, UniProt P51587 3194-3418, looked up)
chain: PTKDCTSGPYTAQIIPGTGNKLLMSSPNCEIYYQSPLSLCMAKRKSVSTPVSAQMTSKSCKGEKEIDDQKNCKKRRALDFLSRLPLPPPVSPICTFVAPAAQKAFQPPRSCGTKYETPIKKKELNSPQMTPFKKFNEISLLESNSIADEELALINTQALLSGSTGEKQFISVSESTRTAPTSSEDYLRLKRRCTTSLIKEQESSQASTEECEKNKQDTITTKKYI
notes: BRCA2, human, CTRB (residues 3194-3418) with S3291A; Called a CTRB mutant purified as wild-type CTRB; source: E. coli, purified using the procedure developed for wild-type CTRB
With B2, the binding result in data set [1] is given as “binds”.

B3: CTRB-S3291E (domain or fragment, human, UniProt P51587 3194-3418, looked up)
chain: PTKDCTSGPYTAQIIPGTGNKLLMSSPNCEIYYQSPLSLCMAKRKSVSTPVSAQMTSKSCKGEKEIDDQKNCKKRRALDFLSRLPLPPPVSPICTFVEPAAQKAFQPPRSCGTKYETPIKKKELNSPQMTPFKKFNEISLLESNSIADEELALINTQALLSGSTGEKQFISVSESTRTAPTSSEDYLRLKRRCTTSLIKEQESSQASTEECEKNKQDTITTKKYI
notes: BRCA2, human, CTRB (residues 3194-3418) with S3291E; Called a CTRB mutant purified as wild-type CTRB; source: E. coli, purified using the procedure developed for wild-type CTRB
As for B3, the binding result in data set [1] is on record as “binds”.

B4: CTRB-4A (BRCA2 residues 3194-3418, KKRR(3266-3269) to AAAA) (domain or fragment, human, UniProt P51587 3194-3418, looked up)
chain: PTKDCTSGPYTAQIIPGTGNKLLMSSPNCEIYYQSPLSLCMAKRKSVSTPVSAQMTSKSCKGEKEIDDQKNCAAAAALDFLSRLPLPPPVSPICTFVSPAAQKAFQPPRSCGTKYETPIKKKELNSPQMTPFKKFNEISLLESNSIADEELALINTQALLSGSTGEKQFISVSESTRTAPTSSEDYLRLKRRCTTSLIKEQESSQASTEECEKNKQDTITTKKYI
notes: BRCA2, human, residues 3194-3418; also called 4 A mutant; source: E. coli Rosetta (pET32a), purified as the wild type
On to B4, for which the binding result in data set [1] is “binds”.

B5: GST-TR2 with deletion of residues 3291-3295 (domain or fragment, human, UniProt P51587 3265-3330, looked up)
chain: CKKRRALDFLSRLPLPPPVSPICTFVKAFQPPRSCGTKYETPIKKKELNSPQMTPFKKFNE
notes: BRCA2, human, TR2 region, residues 3265-3330, internally truncated; source: E. coli Rosetta (pGEX-TR2 variant), purified (glutathione-Sepharose, SP Sepharose); not shown: GST, N-terminal, kept
Regarding B5, in data set [2], the binding result is “binds”.

B6: Fork substrate (Oligo-H3/H5) (mixed)
DNA 1: TTGATAAGAGGTCATTTGAATTCATGGCTTAGAGCTTAATTGCTGAATCTGGTGCTGGGATCCAACATGTTTTAAATATG
DNA 2: CATATTTAAAACATGTTGGATCCCAGCACCAGATTCAGCATACGTTACCGATCGTACGTTCGATGCTGGCTACTGCTAGC
On to B6, for which, in data set [3], the binding result was “binds”.

B7: GST-TR2 with deletion of residues 3306-3310 (domain or fragment, human, UniProt P51587 3265-3330, looked up)
chain: CKKRRALDFLSRLPLPPPVSPICTFVSPAAQKAFQPPRSCGPIKKKELNSPQMTPFKKFNE
notes: as for B5
On to B7, for which the binding result in data set [2] is reported as “binds”.

B8: GST-TR2 (BRCA2 residues 3265-3330) (domain or fragment, human, UniProt P51587 3265-3330, looked up)
chain: CKKRRALDFLSRLPLPPPVSPICTFVSPAAQKAFQPPRSCGTKYETPIKKKELNSPQMTPFKKFNE
notes: BRCA2, human, TR2 region, residues 3265-3330; also called BRCA2-TR2 polypeptide; source: E. coli Rosetta (pGEX-TR2), purified (glutathione-Sepharose, SP Sepharose); not shown: GST, N-terminal, kept
In the case of B8, the binding result in data set [2] was “binds”.
